Results taken from patent US20240360208A1 (Hoffmann-La Roche, published 2024).
Positions count from the first letter of the chain named.

Experiments:
[1] = target: T1, human CCL2 (MCP1) - P8A variant (human, UniProt P13500 24-99); test: SPR T200, 37 C, antibody captured, 1:1 model
T1 construct: In-house point mutant that cannot dimerise; also called monomeric human CCL2; monomeric CCL2
Procedure: (§1) Antibody clone supernatants were diluted 1:2 in system buffer and were captured for 1 min at 5 μl/min. […] Analyte kinetics were performed at 30 μl/min. As analyte in solution wt human CCL2 or monomeric CCL2 P8A variant CCL2 were used. Analytes were injected at 90 nM highest concentration. The analyte contact time was 3 min and the dissociation time was 10 min. The Biaevaluation software V.3.0 was used according to the instructions of the manufacturer GEHC. A 1:1 binding model with RMAX local was applied to apparently estimate kinetic rates.

[2] = target: T2, human CCL2 (MCP1) - wild type (wt) (human, UniProt P13500 24-99); test: SPR T200, 37 C, antibody captured, 1:1 model
T2 construct: Made in-house or bought (R&D Systems 279-MC), depending on the assay; can form dimers; also called wt human CCL2; WT human CCL2
Procedure: as §1

[3] = target: T3, human CCL7 (MCP3) - wild type (wt) (human, UniProt P80098 24-99); test: SPR (Biacore T200), 25 °C, ACES pH 7.4; antibody captured on anti-human IgG (Fc), chemokine injected at 5 nM and 20 nM
T3 construct: Bought from R&D Systems for the homolog assay
Procedure: (§2) Biacore assay method: The binding of anti-CCL2 antibodies to the CCL homologs e.g. CCL2 (MCP-1), CCL8 (MCP-2), CCL7 (MCP-3), and CCL13 (MCP-4) were assessed at 25° C. using Biacore T200 instrument (GE Healthcare). Mouse anti-human IgG (Fc) (GE Healthcare) was immobilized on each flow cells of a CM4 sensor chip using amine coupling kit (GE Healthcare) according to the recommended settings by the manufacturer. Antibodies and analytes were diluted into ACES pH 7.4 buffer (20 mM ACES, 150 mM NaCl, 1 mg/ml BSA, 0.05% Tween 20, 0.005% NaN3). Antibodies were captured onto the anti-Fc sensor surfaces, then recombinant human CCL homologs proteins was injected over the flow cell at 5 nM and 20 nM. […] Sensor surface was regenerated each cycle with 3M MgCl2. Binding sensorgram was processed using Biacore T200 Evaluation software, version 2.0 (GE Healthcare).

[4] = target: T4, human CCL8 (MCP2) - wild type (wt) (human, UniProt P80075 24-99); test: as above
T4 construct: also called huCCL8
T4 sequence: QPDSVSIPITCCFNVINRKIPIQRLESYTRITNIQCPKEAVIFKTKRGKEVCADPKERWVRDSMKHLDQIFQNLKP
Procedure: as §2

[5] = target: T2, human CCL2 (MCP1) - wild type (wt); test: cell-based or functional assay
[6] = target: T2, human CCL2 (MCP1) - wild type (wt); test: cell-based or functional assay; remark: listed apart in the source
[7] = target: T5, human FcγRIIb receptor on CHO-K1 cells (clone 223) (human, UniProt P31994 43-310); test: cell-based or functional assay
T5 sequence (looked up): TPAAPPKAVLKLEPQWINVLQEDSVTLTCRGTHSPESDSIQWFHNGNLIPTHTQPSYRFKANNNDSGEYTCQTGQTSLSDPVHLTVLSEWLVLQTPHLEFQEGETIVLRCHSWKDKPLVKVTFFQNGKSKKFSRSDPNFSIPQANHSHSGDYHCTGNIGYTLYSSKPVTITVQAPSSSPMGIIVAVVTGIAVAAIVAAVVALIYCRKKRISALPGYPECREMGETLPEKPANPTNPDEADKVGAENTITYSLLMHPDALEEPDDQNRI

[8] = target: T1, human CCL2 (MCP1) - P8A variant; test: number printed beside the row of sensorgrams; the assay and the CCL2 form behind the number are not stated on the sheet (the sensorgrams are on monomeric CCL2)
[9] = target: T1, human CCL2 (MCP1) - P8A variant; test: number printed over the column of sensorgrams; the assay and the CCL2 form behind the number are not stated on the sheet (the sensorgrams are on monomeric CCL2)

B1: 1A5 (antibody, IgG1, V domains shown)
VH: QEQLVESGGDLVKPEGSLTLTCTASGFSFSTSYWMCWVRQAPGKGLELIACISSSIGVTYYASWAEGRFTISKTSSTTVTLQMTSLTVADTATYFCARTTDDNWNVGFNLWGPGTLVTVSS
VL: AYDMTQTPASVEVGVGGTVTIKCQASQSIGNRYLSWYQQKPGQPPKLLIYGTSTLASGVSSRFKGSGSGTQFTLTISGVESADSATYYCQQGATISYLDNAFGGGTEVVVK
notes: also called CCL2-0009
With B1 the Kd [1] was 0.046 nM, the “T1/2” value [1] was 2.28 h and the Kd [2] was 0.024 nM. The “T1/2” value [2] was 2.67 h, the binding result [3] was “binds” and the binding result [4] was “no binding (tested: 20 nM)”. The “THP1 chemotaxis [fold change compared to IgG control]” value [5] was 3.6 fold.

B2: CKLO2-IgG1 (bispecific antibody)
heavy 1: not shown
heavy 2: not shown
light 1: QVQLVQSGAEVKKPGSSVKVSCKASGLTISHTYMHWVRQAPGQGLEWMGRIDPDNHNTKFDPKFQGRVTITADTSTSTAYMELSSLRSEDTAVYYCARGVFGFFEHWGQGTTVTVSSASVAAPSVFIFPPSDEQLKSGTASVVCLLNNFYPREAKVQWKVDNALQSGNSQESVTEQDSKDSTYSLSSTLTLSKADYEKHKVYACEVTHQGLSSPVTKSFNRGEC
light 2: EIVLTQSPATLSLSPGERATLSCRASQHVSDAYLAWYQQKPGQAPRLLIYDASDRAEGVPARFSGSGSGTDFTLTISSLEPEDFAVYYCHQYIHLHSFTFGQGTKVEIKRTVAAPSVFIFPPSDRKLKSGTASVVCLLNNFYPREAKVQWKVDNALQSGNSQESVTEQDSKDSTYSLSSTLTLSKADYEKHKVYACEVTHQGLSSPVTKSFNRGEC
In the case of B2, the “IC50, inhibition of THP-1 migration (chemotaxis assay)” value (from here on “IC50, inhibition of THP-1 migration”) [6] is reported as 0.2 µg/mL.

B3: CKLO2-SG1095 (=P1AD8325) (bispecific antibody)
heavy 1: DIQMTQSPSSLSASVGDRVTITCKAFEDIYNRRAWYQQKPGKAPKLLIHGATSLEHGVPSRFSGSGSGTDYTLTISSLQPEDFATYYCQQFWSAPYTFGGGTKVEIKSSASTKGPSVFPLAPSSKSTSGGTAALGCLVKDYFPEPVTVSWNSGALTSGVHTFPAVLQSSGLYSLSSVVTVPSSSLGTQTYICNVNHKPSNTKVDKKVEPKSCDKTHTCPPCPAPELWNGPSVFLFPPKPKDTLMISRTPEVTCVVVDVSDEDPEVKFNWYVDGVEVHNAKTKPREELYNSTYRVVSVLTVLHRDWLNGKEYKCKVSNTALPKPIEKTISKAKGQRREPQVYTLPPCRDELTKNQVSLWCLVKGFYPSDIAVEWESNGQPENNYKTTPPVLDSDGSFFLYSKLTVDKSRWQQGNVFSCSVMHEALHAHYTRKELSLSP
heavy 2: not shown
light 1: B2 light 1
light 2: B2 light 2
B3 was tested, and the “IC50, inhibition of THP-1 migration” value [6] was 0.2 µg/mL, the “Depletion level max (%) of CCL2 from the supernatant” value [7] was 85% and the “EC50 [nM] of CCL2 depletion” value [7] was 0.5 nM.

B4: CKLO2-GG01 (=P1AF8137) (bispecific antibody)
heavy 1: B3 heavy 1 with L226Y, W227L, N228G, P230D, T242V, V256I, D260H, L287Q, T299P, T318K
heavy 2: not shown
light 1: B2 light 1
light 2: B2 light 2
In the case of B4, the “IC50, inhibition of THP-1 migration” value [6] is reported as 0.2 µg/mL.

B5: CNTO888H0625/CNTO888L0616 (antibody, V domains shown)
VH: QVQLVQSGAEVKKPGSSVKVSCKASGGTFSHYGISWVRQAPGQGLEWMGGIIHIFHTANYAQKFQGRVTITADESTSTAYMELSSLRSEDTAVYYCARYDAHYGELDFWGQGTLVTVSS
VL: EIVLTQSPATLSLSPGERATLSCRASQHVSDAYLAWYQQKPGQAPRLLIYDASDRAEGVPARFSGSGSGTDFTLTISSLEPEDFAVYYCHQYIHLHSFTFGQGTKVEIK
notes: also called modified CNTO888 variant (VH H0625 / VL L0616)
B5 was tested, and the “Affinity relative to parent CNTO888” value [8] was 3 X.

B6: CNTO888 (antibody, V domains shown)
VH: B5 VH with H31S, H53P, H56G, A101G, H102I
VL: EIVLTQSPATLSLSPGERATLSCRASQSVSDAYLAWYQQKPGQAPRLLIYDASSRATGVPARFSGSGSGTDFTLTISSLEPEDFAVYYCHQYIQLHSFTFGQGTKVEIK
notes: IgG1 wild type with kappa light chain; also called CCL2-0004; CNTO888-IgG1
B6: no binding (tested: 20 nM) [3].

B7: CNTO888H0635/CNTO888L0616 (antibody, V domains shown)
VH: B5 VH with I51H, H56G
VL: B5 VL
notes: also called modified CNTO888 variant (VH H0635 / VL L0616)
In the case of B7, the “Affinity relative to parent CNTO888” value [8] is reported as 3 X.

B8: CNTO888H0634/CNTO888L0616 (antibody, V domains shown)
VH: B5 VH with I34T, H56G
VL: B5 VL
notes: also called modified CNTO888 variant (VH H0634 / VL L0616)
In the case of B8, the “Affinity relative to parent CNTO888” value [8] is reported as 10 X.

B9: CNTO888H0695/CNTO888L0616 (antibody, V domains shown)
VH: B5 VH with I51V, H53P
VL: B5 VL
notes: also called modified CNTO888 variant (VH H0695 / VL L0616)
With B9 the “Affinity relative to parent CNTO888” value [8] was 1 X.

B10: 1G9 (antibody, IgG1, V domains shown)
VH: QSLEESGGDLVKPGASLTLTCKASGIDFSLYSYMCWVRQAPGKGLEWIACVDAGASGSTYYASWAKGRFTISKTSSTTVTLQMTSLTAADTATYFCARGILYYTWPYPAGAIDAFDSWGPGTLVTVSS
VL: AYDMTQTPASVSEPVGGTVTIKCQASESISNYLSWYQQKPGQPPKLLIYKASTLASGVPSRFKGSGSGTEYTVTISGVQSDDAATYYCQQSYSSSNVFNTFGGGTEVVVK
notes: also called CCL2-0010
For B10, the Kd [1] was 0.051 nM, the “T1/2” value [1] was 3.63 h and the Kd [2] was 0.062 nM. The “T1/2” value [2] was 2.95 h, the binding result [3] was “no binding (tested: 20 nM)” and the binding result [4] was “binds”. For the same binder, the “THP1 chemotaxis [fold change compared to IgG control]” value [5] was 0.9 fold.

B11: 11K2H1503/11K2L1338 (antibody, V domains shown)
VH: QVQLVQSGAEVKKPGSSVKVSCKASGLTISHTYMHWVRQAPGQGLEWMGRIDPDNHNTKFDPKFQGRVTITADTSTSTAYMELSSLRSEDTAVYYCARGVFGFFDHWGQGTTVTVSS
VL: DIQMTQSPSSLSASVGDRVTITCKAFEDIYNRRAWYQQKPGKAPKLLIHGATSLEHGVPSRFSGSGSGTDYTLTISSLQPEDFATYYCQQFWSAPYTFGGGTKVEIK
notes: also called modified 11K2 variant (VH H1503 / VL L1338)
For B11, the “Affinity relative to parent 11K2” value [9] was 0.2.

B12: 11K2H1514/11K2L1338 (antibody, V domains shown)
VH: B11 VH with D54E, D105E
VL: B11 VL
notes: also called modified 11K2 variant (VH H1514 / VL L1338)
For B12, the “Affinity relative to parent 11K2” value [9] was 0.02.

B13: 11K2H1503/11K2L1201 (antibody, V domains shown)
VH: B11 VH
VL: B11 VL with F26T, R33L, W92R
notes: also called modified 11K2 variant (VH H1503 / VL L1201)
In the case of B13, the “Affinity relative to parent 11K2” value [9] is reported as 0.05.

B14: 11K2H1510/11K2L1338 (antibody, V domains shown)
VH: B11 VH with D105E
VL: B11 VL
notes: also called modified 11K2 variant (VH H1510 / VL L1338)
With B14 the “Affinity relative to parent 11K2” value [9] was under 0.01.
